This data set in a line: in vitro. The class given is in vitro ADME. The note with it: human, plasma.

Each structure is given as a SMILES string.

As a reminder, the half-life is the time needed for the level to fall by half in the phase considered. Lower therefore signals rapid decline. On to `[N-]=[N+]=NC(CCCCNC(=O)C1=C[C@H](O)[C@@H](NC(=O)[C@@H](CCC(=O)O)NC(=O)C2=C[C@H](O)[C@@H](NC(=O)[C@@H](CCC(=O)O)NC(=O)C3=C[C@H](O)[C@@H](NC(=O)[C@@H](CCC(=O)O)NC(=O)CN4CCN(CC(=O)O)CCN(CC(=O)O)CCN(CC(=O)O)CC4)[C@H]([C@H](O)[C@H](O)CO)O3)[C@H]([C@H](O)[C@H](O)CO)O2)[C@H]([C@H](O)[C@H](O)CO)O1)C(N)=O` (some centres unmarked) [compound 7], for which the half-life was 4.08 days.
With `[N-]=[N+]=NC(CCCCNC(=O)[C@H](CCC(=O)O)NC(=O)C1=C[C@H](O)[C@@H](NC(=O)[C@H](CCC(=O)O)NC(=O)C2=C[C@H](O)[C@@H](NC(=O)[C@H](CCC(=O)O)NC(=O)C3=C[C@H](O)[C@@H](NC(=O)CN4CCN(CC(=O)O)CCN(CC(=O)O)CCN(CC(=O)O)CC4)[C@H]([C@H](O)[C@H](O)CO)O3)[C@H]([C@H](O)[C@H](O)CO)O2)[C@H]([C@H](O)[C@H](O)CO)O1)C(N)=O` (some centres unmarked) [compound 10], the half-life is 16.2 days.
